Laboratory results from the supplement of paper PMC10724198.
± gives the standard deviation of the averaged measurements.

Experiments:
Saccharomyces cerevisiae [1] = assay: protein stability index of tFT-peptide fusion (C-terminal peptide) (PSI (0-1 scale)); higher = more stable (slower turnover); conditions: genetic background: wild type; temperature: 30 C
Saccharomyces cerevisiae [2] = assay: as above
Procedure: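 MPS profiling in S. cerevisiae of the tFT-X12 degron library: putative degron peptides plus stable controls, 12 aa, fused to the C-terminus of a sfGFP-mCherry timer. Cells are FACS-sorted into 8 mCherry/sfGFP bins and deep-sequenced. PSI runs from 0 (unstable) to 1 (stable). Backgrounds are wild type, das1Δ and doa10Δ at 30 °C, and wild type, das1Δ, cdc34-1 and cdc53-1 at 37 °C; 2-3 technical replicates each.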

[3] = genetic background: cdc34-1, temperature: 37 C
[4] = genetic background: cdc53-1, temperature: 37 C
[5] = genetic background: das1 deletion, temperature: 30 C
[6] = genetic background: das1 deletion, temperature: 37 C
[7] = genetic background: doa10 deletion, temperature: 30 C
[8] = genetic background: wild type, temperature: 30 C
[9] = genetic background: wild type, temperature: 37 C
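Note: PSI is a weighted mean of sequencing reads over stability bins, variants kept only with over 10 reads, mCherry proximal and sfGFP distal, peptide attached via GGGS linker.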

Row | Sequence | protein stability index (Saccharomyces cerevisiae [1]) | protein stability index (Saccharomyces cerevisiae [2]; [3]) | protein stability index (Saccharomyces cerevisiae [2]; [4]) | protein stability index (Saccharomyces cerevisiae [2]; [5]) | protein stability index (Saccharomyces cerevisiae [2]; [6]) | protein stability index (Saccharomyces cerevisiae [2]; [7]) | protein stability index (Saccharomyces cerevisiae [2]; [8]) | protein stability index (Saccharomyces cerevisiae [2]; [9])
1 | ICSRCLVTVLSC | 0.311 ± 0.017 | 0.4098 ± 0.0039 | 0.445 ± 0.0063 | 0.296 ± 0.037 | 0.514 ± 0.0071 | 0.198 ± 0.0024 | 0.217 ± 0.039 | 0.367 ± 0.015
2 | LRLLSLIPPLSC | 0.467 ± 0.0065 | 0.494 ± 0.022 | 0.535 ± 0.05 | 0.381 ± 0.039 | 0.53 ± 0.016 | 0.34 ± 0.011 | 0.385 ± 0.026 | 0.52 ± 0.011
3 | PGWALLQLVFLK | 0.456 ± 0.012 | 0.363 ± 0.004 | 0.298 ± 0.039 | 0.346 ± 0.032 | 0.4845 ± 0.0029 | 0.496 ± 0.035 | 0.353 ± 0.021 | 0.464 ± 0.011
4 | PPRSRPLLRPLP | 0.746 ± 0.021 | 0.699 ± 0.0037 | 0.726 ± 0.012 | 0.666 ± 0.022 | 0.7139 ± 0.0036 | 0.684 ± 0.033 | 0.684 ± 0.022 | 0.708 ± 0.025
5 | ASGFLVIPLWVF | 0.294 ± 0.019 | 0.41 ± 0.0072 | 0.4653 ± 0.0021 | 0.323 ± 0.029 | 0.491 ± 0.022 | 0.17 ± 0.0047 | 0.19 ± 0.018 | 0.255 ± 0.0083
6 | FCLMLWGAVLFL | 0.314 ± 0.025 | 0.216 ± 0.014 | 0.29 ± 0.0077 | 0.235 ± 0.019 | 0.364 ± 0.047 | 0.226 ± 0.015 | 0.223 ± 0.03 | 0.33 ± 0.0042
7 | PATPPLRFPPSA | 0.409 ± 0.0081 | 0.702 ± 0.032 | 0.7349 ± 0.0039 | 0.648 ± 0.01 | 0.7356 ± 0.0028 | 0.67 ± 0.033 | 0.668 ± 0.012 | 0.7075 ± 0.0036
8 | FLVPLSPMLLSA | 0.4 ± 0.019 | 0.446 ± 0.011 | 0.451 ± 0.005 | 0.375 ± 0.031 | 0.4942 ± 0.0011 | 0.323 ± 0.012 | 0.347 ± 0.019 | 0.463 ± 0.014
9 | FVVGFVCSMVWG | 0.144 ± 0.016 | 0.0975 ± 0.012 | 0.216 ± 0.024 | 0.0889 ± 0.026 | 0.252 ± 0.0045 | 0.0599 ± 0.0055 | 0.0702 ± 0.019 | 0.2266 ± 0.0022
10 | LTCTSTPMACRV | 0.452 ± 0.0075 | 0.562 ± 0.067 | 0.589 ± 0.021 | 0.443 ± 0.026 | 0.596 ± 0.011 | 0.429 ± 0.015 | 0.475 ± 0.013 | 0.5859 ± 0.0028
11 | YFFFFLHFNFAF | 0.2803 ± 0.002 | 0.145 ± 0.062 | 0.169 ± 0.036 | 0.246 ± 0.023 | 0.35 ± 0.0091 | 0.313 ± 0.034 | 0.225 ± 0.059 | 0.267 ± 0.021
12 | QRTNTIINKRIV | 0.565 ± 0.096 | 0.704 ± 0.036 | 0.753 ± 0.016 | 0.623 ± 0.028 | 0.736 ± 0.012 | 0.478 ± 0.03 | 0.477 ± 0.028 | 0.705 ± 0.041
13 | RVGGVVVLGCVG | 0.476 ± 0.0028 | 0.645 ± 0.03 | 0.711 ± 0.02 | 0.549 ± 0.013 | 0.684 ± 0.02 | 0.555 ± 0.027 | 0.5598 ± 0.0053 | 0.67072 ± 0.0004
14 | VAWCVWCWWWAV | 0.131 ± 0.047 | 0.188 ± 0.0033 | 0.322 ± 0.0061 | 0.209 ± 0.021 | 0.351 ± 0.0049 | 0.06 ± 0.016 | 0.0674 ± 0.015 | 0.0852 ± 0.013
15 | LSFLSLIFSICY | 0.461 ± 0.022 | 0.43162 ± 0.0004 | 0.449 ± 0.054 | 0.356 ± 0.021 | 0.526 ± 0.066 | 0.355 ± 0.0012 | 0.333 ± 0.037 | 0.474 ± 0.012
16 | VIWIRMISFFVW | 0.245 ± 0.015 | 0.192 ± 0.035 | 0.283 ± 0.024 | 0.2 ± 0.043 | 0.35 ± 0.013 | 0.174 ± 0.01 | 0.188 ± 0.034 | 0.346 ± 0.048
17 | LCGYVGVVVCLV | 0.307 ± 0.019 | 0.282 ± 0.012 | 0.307 ± 0.027 | 0.243 ± 0.029 | 0.433 ± 0.0061 | 0.175 ± 0.0034 | 0.209 ± 0.021 | 0.352 ± 0.015
18 | GLFCCFLCLSVF | 0.261 ± 0.015 | 0.241 ± 0.0047 | 0.297 ± 0.018 | 0.241 ± 0.041 | 0.343 ± 0.015 | 0.2 ± 0.004 | 0.204 ± 0.026 | 0.275 ± 0.017
19 | DGGHLVGHDLFY | 0.727 ± 0.024 | 0.716 ± 0.023 | 0.747 ± 0.023 | 0.656 ± 0.023 | 0.758 ± 0.032 | 0.657 ± 0.016 | 0.664 ± 0.053 | 0.78 ± 0.0091
20 | WRLRIAAVVRSS | 0.281 ± 0.028 | 0.556 ± 0.047 | 0.655 ± 0.031 | 0.586 ± 0.011 | 0.6471 ± 0.0012 | 0.123 ± 0.0017 | 0.142 ± 0.021 | 0.287 ± 0.016

Row | Sequence | protein stability index (Saccharomyces cerevisiae [1]) | protein stability index (Saccharomyces cerevisiae [2]; [3]) | protein stability index (Saccharomyces cerevisiae [2]; [4]) | protein stability index (Saccharomyces cerevisiae [2]; [5]) | protein stability index (Saccharomyces cerevisiae [2]; [6]) | protein stability index (Saccharomyces cerevisiae [2]; [7]) | protein stability index (Saccharomyces cerevisiae [2]; [8]) | protein stability index (Saccharomyces cerevisiae [2]; [9])
21 | MALAVRVVYCGA | 0.378 ± 0.0028 | 0.349 ± 0.015 | 0.391 ± 0.01 | 0.293 ± 0.023 | 0.4395 ± 0.0024 | 0.234 ± 0.011 | 0.283 ± 0.027 | 0.415 ± 0.021
22 | VSFRISAIFVCV | 0.343 ± 0.044 | 0.232 ± 0.034 | 0.293 ± 0.02 | 0.216 ± 0.033 | 0.367 ± 0.0039 | 0.183 ± 0.011 | 0.202 ± 0.028 | 0.322 ± 0.045
23 | SWVVLVSFLSWR | 0.357 ± 0.0065 | 0.2561 ± 0.0015 | 0.3502 ± 0.0028 | 0.245 ± 0.031 | 0.4285 ± 0.003 | 0.233 ± 0.0082 | 0.232 ± 0.032 | 0.424 ± 0.031
24 | FFVYFFLLLFWF | 0.208 ± 0.0049 | 0.171 ± 0.015 | 0.0838 ± 0.023 | 0.213 ± 0.029 | 0.233 ± 0.027 | 0.272 ± 0.028 | 0.188 ± 0.015 | 0.196 ± 0.0034
25 | SSGSLLLPRFLT | 0.387 ± 0.03 | 0.658 ± 0.038 | 0.7301 ± 0.0046 | 0.672 ± 0.023 | 0.734 ± 0.019 | 0.222 ± 0.019 | 0.243 ± 0.038 | 0.54 ± 0.037
26 | LRSPCALVLLLI | 0.336 ± 0.0096 | 0.495 ± 0.022 | 0.5317 ± 0.0035 | 0.376 ± 0.029 | 0.556 ± 0.0056 | 0.213 ± 0.0037 | 0.237 ± 0.024 | 0.441 ± 0.0051
27 | CFVPFFLPLCAF | 0.139 ± 0.016 | 0.0255 ± 0.0085 | 0.0285 ± 0.0074 | 0.0864 ± 0.03 | 0.109 ± 0.058 | 0.144 ± 0.0073 | 0.0733 ± 0.019 | 0.0588 ± 0.022
28 | GCVMSVCSLAVS | 0.486 ± 0.013 | 0.605 ± 0.019 | 0.624 ± 0.0098 | 0.45 ± 0.027 | 0.5659 ± 0.0049 | 0.453 ± 0.025 | 0.458 ± 0.011 | 0.54537 ± 2.2e-05
29 | GMNGLFFIAMLG | 0.362 ± 0.02 | 0.53 ± 0.033 | 0.645 ± 0.041 | 0.514 ± 0.018 | 0.642 ± 0.035 | 0.195 ± 0.016 | 0.195 ± 0.029 | 0.398 ± 0.015
30 | LRFFLPFLLSLP | 0.2418 ± 0.0021 | 0.519 ± 0.043 | 0.596 ± 0.015 | 0.55 ± 0.036 | 0.6588 ± 0.0031 | 0.158 ± 0.0035 | 0.164 ± 0.022 | 0.292 ± 0.0041
31 | LLTAARAQLFAV | 0.503 ± 0.046 | 0.65 ± 0.0086 | 0.704 ± 0.029 | 0.578 ± 0.016 | 0.7 ± 0.022 | 0.457 ± 0.013 | 0.477 ± 0.019 | 0.6168 ± 0.0014
32 | FYFRSSFFTICF | 0.398 ± 0.024 | 0.36 ± 0.038 | 0.3875 ± 0.0025 | 0.365 ± 0.033 | 0.46 ± 0.0018 | 0.4318 ± 0.0037 | 0.352 ± 0.014 | 0.446 ± 0.017
33 | YDVQIEFCVVEV | 0.442 ± 0.0093 | 0.601 ± 0.035 | 0.57 ± 0.019 | 0.365 ± 0.03 | 0.5694 ± 0.0029 | 0.347 ± 0.004 | 0.379 ± 0.017 | 0.547 ± 0.019
34 | VVISRVLAIRLL | 0.237 ± 0.0063 | 0.5452 ± 0.00094 | 0.6095 ± 0.0003 | 0.5 ± 0.027 | 0.6173 ± 0.002 | 0.1324 ± 0.0013 | 0.137 ± 0.028 | 0.228 ± 0.042
35 | FVSVAGFIVVVV | 0.4076 ± 0.00077 | 0.47 ± 0.018 | 0.488 ± 0.036 | 0.293 ± 0.048 | 0.5341 ± 0.0027 | 0.291 ± 0.013 | 0.28 ± 0.034 | 0.498 ± 0.0068
36 | WGCIFWFFDVRV | 0.386 ± 0.027 | 0.193 ± 0.0065 | 0.335 ± 0.015 | 0.229 ± 0.023 | 0.416 ± 0.018 | 0.203 ± 0.0046 | 0.207 ± 0.025 | 0.402 ± 0.026
37 | WSMSSPPLLLAS | 0.36 ± 0.0058 | 0.314 ± 0.014 | 0.301 ± 0.017 | 0.272 ± 0.017 | 0.377 ± 0.0019 | 0.22 ± 0.0085 | 0.276 ± 0.013 | 0.349 ± 0.019
38 | HDLRRRVVSVMV | 0.372 ± 0.061 | 0.48 ± 0.046 | 0.4601 ± 0.0032 | 0.337 ± 0.025 | 0.55 ± 0.022 | 0.258 ± 0.013 | 0.297 ± 0.03 | 0.47615 ± 0.00044
39 | FSVLVVYTRLFQ | 0.414 ± 0.091 | 0.427 ± 0.064 | 0.452 ± 0.033 | 0.332 ± 0.042 | 0.558 ± 0.013 | 0.306 ± 0.011 | 0.321 ± 0.033 | 0.508 ± 0.012
